Consider four substances from patent publication US20190062383A1.

The target of experiment [1] is human Kv1.1 (human) (UniProt Q09470).
Experiment [2] has as its target human Kv1.3 (human) (UniProt P22001). Kind of experiment: cell-based or functional assay.
For experiment [3], the target named is human Kv1.1 (human) (UniProt Q09470). As to the kind of experiment: cell-based or functional assay.
Experiment [4] has as its target human Kv1.3 (human) (UniProt P22001).

human Kv1.1 (human), sequence (Q09470 whole entry): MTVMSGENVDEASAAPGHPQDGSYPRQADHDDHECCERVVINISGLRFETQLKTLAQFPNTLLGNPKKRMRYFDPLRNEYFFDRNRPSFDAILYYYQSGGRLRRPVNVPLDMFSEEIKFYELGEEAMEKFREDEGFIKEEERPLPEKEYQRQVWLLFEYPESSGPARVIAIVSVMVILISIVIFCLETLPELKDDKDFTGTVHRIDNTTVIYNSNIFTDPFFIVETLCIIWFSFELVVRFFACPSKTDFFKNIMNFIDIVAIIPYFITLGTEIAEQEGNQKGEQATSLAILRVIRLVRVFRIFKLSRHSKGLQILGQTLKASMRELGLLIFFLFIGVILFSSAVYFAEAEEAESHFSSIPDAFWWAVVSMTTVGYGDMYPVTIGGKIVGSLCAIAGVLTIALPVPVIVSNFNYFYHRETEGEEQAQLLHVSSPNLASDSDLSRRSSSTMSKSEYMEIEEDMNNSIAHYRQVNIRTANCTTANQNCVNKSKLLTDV
human Kv1.3 (human), sequence (P22001 whole entry): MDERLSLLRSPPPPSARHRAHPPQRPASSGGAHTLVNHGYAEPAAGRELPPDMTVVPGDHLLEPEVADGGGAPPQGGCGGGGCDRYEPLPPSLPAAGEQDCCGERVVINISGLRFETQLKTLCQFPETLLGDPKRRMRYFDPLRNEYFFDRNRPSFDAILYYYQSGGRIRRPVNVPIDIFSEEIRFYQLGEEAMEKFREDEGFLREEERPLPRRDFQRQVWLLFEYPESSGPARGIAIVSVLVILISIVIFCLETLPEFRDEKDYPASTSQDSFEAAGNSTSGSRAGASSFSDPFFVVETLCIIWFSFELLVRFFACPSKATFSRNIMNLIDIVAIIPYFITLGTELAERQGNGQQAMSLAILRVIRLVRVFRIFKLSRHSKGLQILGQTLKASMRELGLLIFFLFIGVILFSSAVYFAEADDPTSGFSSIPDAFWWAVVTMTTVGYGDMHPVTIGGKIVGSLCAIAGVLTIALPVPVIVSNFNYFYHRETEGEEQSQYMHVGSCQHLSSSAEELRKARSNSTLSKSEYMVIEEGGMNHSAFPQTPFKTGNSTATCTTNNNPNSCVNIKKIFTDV

Turning to KV1C2 (OdK2-Fc fusion), the thallium flux KV1.1 IC50 in the experiment with human Kv1.1 (human) [1] was above 1000 nM.

In the experiment with human Kv1.3 (human) [2], KV1N2 (OsK1-Fc fusion) registered a Kv1.3 IC50, patch clamp of 0.3 nM. In the experiment with human Kv1.1 (human) [3], this substance displayed a Kv1.1 IC50, patch clamp of 2 nM and a Kv1.1 IC50, whole-cell patch clamp of 2 nM. The thallium flux KV1.3 IC50 in the experiment with human Kv1.3 (human) [4] was 0.03 nM. Besides, in the experiment with human Kv1.1 (human) [1], the thallium flux KV1.1 IC50 was found to be 0.1 nM.

Turning to wild type OdK2 peptide, the Kv1.3 IC50, whole-cell patch clamp with human Kv1.3 (human) [2] is 0.1 nM.

For the substance wild type OsK1 peptide, in the experiment with human Kv1.3 (human) [2], the CD4+ T cell inhibition IC50 came to 0.03 nM; the CD8+ T cell inhibition IC50 came out at 0.03 nM; the Kv1.3 IC50, whole-cell patch clamp was determined as 0.01 nM. Further, in the experiment with human Kv1.1 (human) [3], the Kv1.1 IC50, whole-cell patch clamp amounted to 0.21 nM.
